We go through two molecules from patent US12123009B2, “Methods and compositions for PPO herbicide tolerance in plants” (Monsanto Technology LLC, priority 2015, dated 2024).

Test [1] concerns transgenic maize plants. Description: R0 multi-copy transgenic maize S-3100 spray test. It is filed as in vivo, maize (LH244). From the text: For maize in planta testing, immature maize (LH244) embryos were transformed with using Agrobacterium tumefaciens and standard methods known in the art. […] Leaf samples were collected from R0 plants and screened by PCR to determine the number of copies of the transgene inserted into the plant genome. […] Plants containing multiple copies (multi-copy) were sprayed as follows: […]

Test [2] concerns transgenic maize plants. The experiment in a line: R0 transgenic maize 40 g/ha S-3100 spray test. It is filed as in vivo. An excerpt: H_N60 (SEQ ID NO:3). […] These five constructs had the same promoter plus leader plus intron combination, with two different targeting peptide (TP) sequences, and the same 3′UTR sequence. Leaf samples were taken from the R0 plants and analyzed by PCR to determine the transgene copy number. Single copy plants for up to 12 unique events per construct were transplanted to pots, selfed and outcrossed to generate R1 and F1 seed, respectively, for future testing. Multi-copy plants and extra single copy plants were sprayed with 40 grams/ha 5-3100 at approximately the V5 growth stage and injury ratings were taken 7 days after treatment. The average percent (%) injury for all plants expressing each PPO enzyme and the number of plants that were deemed highly tolerant (less than 10% injury) was noted, where each plant is a unique single or multi-copy transformant.

For test [3], the system named is F1 maize. Description: Efficacy field trial of F1 maize. It is filed as in vivo. The following applies: F1 transgenic maize greenhouse and field data. As to the method:
This F1 population was segregating (50% hemizygous and 50% null) and selection for transgenic plants was not conducted prior to injury ratings. The overall average injury ratings for such a population are expected to be higher than a homogenous transgenic population since it is difficult to discern non-transgenic plants from transgenic plants. The trials were conducted at two locations with two replicates and 3 treatments per construct. Non-transgenic maize plants were used as a negative control. The herbicide application treatments were as follows: Treatment 1 was 0.036 lb ai/acre S-3100 applied at V2 followed by (fb) V4 fb V8; Treatment 2: was 0.072 lb ai/acre S-3100 applied at V2 fb V4 fb V8; Treatment 3: was 0.144 lb ai/acre S-3100 applied at V2 fb V4 fb V8. Crop Injury Percent ratings were assessed at the V2 growth stage (CIPV2) and at the V4 growth stage (CIPV4) at 5 to 7 days after treatment (the error V2 and error V4 are half of the least significant difference (LSD)). The crop injury ratings were combined for both locations.

The test system of test [4] is soybean plantlets. Description: High-throughput soybean screening for herbicide tolerance (plantlets). It is filed as in vivo, soybean (A3555). Also on record: key: 0 for poor tolerance, high damage, low green coloration; 1 for some tolerance, average damage, moderate green coloration; 2 for good tolerance, low damage, high green coloration. Particulars: S-3100 spray five weeks post-transformation, scored day four. The gist of the method:
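Soybean embryo explants (A3555) transformed via A. tumefaciens; at five weeks, plantlets sprayed with two passes of S-3100 (0.3 g in 5.0 mL crop oil concentrate plus 495 mL water). After four days with at least 15 h light daily, green coloration versus damage scored 0 (poor), 1 (some) or 2 (good tolerance).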

Test [5] has as its system hemG knockout E. coli strain. It is filed as cell-based. The following applies: LB medium plates (heme-free).
Test [6] deals with hemG knockout E. coli strain. It is filed as cell-based. The following applies: LB liquid medium, acifluorfen (1 mM), flumioxazin (0.5 mM), lactofen (0.5 mM), fomesafen (1 mM), S-3100 (100 uM).
Setting [7] is: 40 grams/ha S-3100 at V5, 7 days after treatment, R0 plants.

B1: H_N10: E. coli wild-type HemG protoporphyrinogen oxidase, SEQ ID NO:4 (SEQ ID NO:13 lacking start methionine) (protein, listed as Escherichia coli)
chain: MKTLILFSTRDGQTREIASYLASELKELGIQADVANVHRIEEPQWENYDRVVIGASIRYGHYHSAFQEFVKKHATRLNSMPSAFYSVNLVARKPEKRTPQTNSYARKFLMNSQWRPDRCAVIAGALRYPRYRWYDRFMIKLIMKMSGGETDTRKEVVYTDWEQVANFAREIAHLTDKPTLK
In the case of B1, the “Average Injury” value in test [1] (Treatment 1: 5 g/ha S-3100 at V5 followed by 10 g/ha at V7, total 15 g/ha, 7 days after final treatment, H_N10 in construct 6) is reported as 28.9%; in test [1] (Treatment 2: 10 g/ha S-3100 at V5, 7 days after treatment, H_N10 in construct 16), 24.2%; in test [2] (setting [7]), 39.5%. Moreover, the “Highly Tolerant (number of plants with less than 10% injury)” value in test [2] (setting [7]) is 31. Besides, the “injury rates when expressed in transgenic plants (crop tolerance to a PPO herbicide)” value in test [2] (R0 transgenic maize data) and in test [3] was “reduced injury rates” throughout. Besides, the coloration score in test [4] (TP9) was determined as 1; in test [4] (TP12) it was 1; in test [4] (TP13) it was 1; in test [4] (TP14), 0; in test [4] (TP16), 1; in test [4] (TP18), 1. The coloration score in test [4] (TP19) is 0; in test [4] (TP20) it was 0; in test [4] (TP21), 0; in test [4] (TP22) it was 1; in test [4] (TP23), 1; in test [4] (TP24), 0. The coloration score in test [4] (TP26) is reported as 0; in test [4] (TP27), 1; in test [4] (TP31), 1; in test [4] (TP33), 1; in test [4] (TP36), 0.

B2: Waterhemp: herbicide-sensitive wild-type protoporphyrinogen oxidase from Amaranthus tuberculatus (waterhemp), SEQ ID NO:21; plastid extract in Table 3 (protein, listed as Amaranthus tuberculatus)
chain: MGNISEREEPTSAKRVAVVGAGVSGLAAAYKLKSHGLSVTLFEADSRAGGKLKTVKKDGFIWDEGANTMTESEAEVSSLIDDLGLREKQQLPISQNKRYIARDGLPVLLPSNPAALLTSNILSAKSKLQIMLEPFLWRKHNATELSDEHVQESVGEFFERHFGKEFVDYVIDPFVAGTCGGDPQSLSMHHTFPEVWNIEKRFGSVFAGLIQSTLLSKKEKGGENASIKKPRVRGSFSFQGGMQTLVDTMCKQLGEDELKLQCEVLSLSYNQKGIPSLGNWSVSSMSNNTSEDQSYDAVVVTAPIRNVKEMKIMKFGNPFSLDFIPEVTYVPLSVMITAFKKDKVKRPLEGFGVLIPSKEQHNGLKTLGTLFSSMMFPDRAPSDMCLFTTFVGGSRNRKLANASTDELKQIVSSDLQQLLGTEDEPSFVNHLFWSNAFPLYGHNYDSVLRAIDKMEKDLPGFFYAGNHKGGLSVGKAMASGCKAAELVISYLDSHIYVKMDEKTA
Regarding B2, in test [5], the “restore growth of the transformed hemG knockout E. coli strain (PPO activity)” value was “able to restore growth”. The “growth of hemG knockout E. coli strain in the presence of a PPO herbicide” value in test [6] is recorded as “sensitive”.
